Laboratory results as given in patent US20120100142A1 (VANDERBILT UNIVERSITY, published 2012).

B1: mAb 4D20 (antibody, V domains shown)
VH: EVQLVESGPVLVKPTETLTVTCTVSGFSVDNDRMGVSWIRQPPGKALEWLAHIFSNDEKSYSTSLRSRLTISKDTSKRQVVLSMTDMDPVDTATYYCARAPSEYAAMDVWGQGTMVTVS
VL: SYVLTQPPSVSVAPGETATVTCGGNNIGSKSVHWYQQKPGQAPVVVIYYDGDRPSGIPERFSGSNSGDTATLTISRVEAGDEADYYCLVWDYTSVHYVFGTGTKVTVLG
B2: mAb 2B12 (antibody, V domains shown)
VH: EVQLQESGPGLVKPSQTLSLTCNVSGGSITGDYKWSWIRQPPGKGLEWIGHIHSTGTTYYNPSLRSRITISMDTSKNNLSLRLTSVTAADTAVYYCASHTLTSGHYPRDFDFWGQGTLVTVSS
VL: SYVLTQPPSVSGTPGQRVIISCSGYSSNIGSNTVNWYQQFPGTAPRLLIYANNQRPPGVPDRFSGSKSGTSASLAISGLQSDDESDYYCAAWDDSLNGHWVFGGGTKLTVLG
B3: mAb 2D1 (antibody, V domains shown)
VH: EVQLVESGPALVKPTQTLTLTCSFSGFSLSTSGMSVSWIRQPPGKALEWLALIDWDDDTYYITYSSSLKTRLTISKDTSKSQVVLTMTNMDPVDTATYYCARTLRVSGDYVRDFDLWGRGTLVTVS
VL: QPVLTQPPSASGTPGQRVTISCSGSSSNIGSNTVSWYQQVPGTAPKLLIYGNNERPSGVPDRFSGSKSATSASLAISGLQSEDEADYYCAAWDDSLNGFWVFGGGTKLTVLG
B4: mAb 1F1 (antibody, V domains shown)
VH: EVQLVQSGGGVVQPRRSLRLSCAASGFTFSSYAMHWVRQAPGKGLEWVAVISYDGRNKYYADSVKGRFTVSRDNSKNTLYLQMNSLRAEDTSVYYCARELLMDYYDHIGYSPGPTWGQGTLVTVSS
VL: QPVLTQPPSASGSPGQRVTISCSGSSSNIGSYTVNWYQQLPGTAPKLLIYSLNQRPSGVPDRFSGSKSGTSASLAISGLQSEDEAVYYCAAWDDSLSAHVVFGGGTKLTVLG
B5: mAb 1I20 (antibody, V domains shown)
VH: EVQLVESGGGVVQPGGSLRLSCIASAFNLGIFGMHWVRQAPGKGLEWVAFIRYDGGKTFYADSVKGRFTISRDNSKNTLYLQMNSLRTEDTALYYCARDATADYYGPGSYPNWLDPWGQGTLVTVS
VL: DIRLTQSPATLSVSPGERATLSCRASHSVSRNLAWYQQKPGRAPRLLVYDTSSRATGIPARFSGSGSGTEFTLTISSLQSEDFAVYYCQQYNNWPRTFGQGTKVDIK

Key:
[1] = target: T1, 1918 HA displayed on 1918 virus-like particles, reconstituted 1918 virus or transfected cells (influenza A/South Carolina/1/1918 …, UniProt Q9WFX3 18-566); experiment: cell-based or functional assay
T1 sequence (Q9WFX3 18-566): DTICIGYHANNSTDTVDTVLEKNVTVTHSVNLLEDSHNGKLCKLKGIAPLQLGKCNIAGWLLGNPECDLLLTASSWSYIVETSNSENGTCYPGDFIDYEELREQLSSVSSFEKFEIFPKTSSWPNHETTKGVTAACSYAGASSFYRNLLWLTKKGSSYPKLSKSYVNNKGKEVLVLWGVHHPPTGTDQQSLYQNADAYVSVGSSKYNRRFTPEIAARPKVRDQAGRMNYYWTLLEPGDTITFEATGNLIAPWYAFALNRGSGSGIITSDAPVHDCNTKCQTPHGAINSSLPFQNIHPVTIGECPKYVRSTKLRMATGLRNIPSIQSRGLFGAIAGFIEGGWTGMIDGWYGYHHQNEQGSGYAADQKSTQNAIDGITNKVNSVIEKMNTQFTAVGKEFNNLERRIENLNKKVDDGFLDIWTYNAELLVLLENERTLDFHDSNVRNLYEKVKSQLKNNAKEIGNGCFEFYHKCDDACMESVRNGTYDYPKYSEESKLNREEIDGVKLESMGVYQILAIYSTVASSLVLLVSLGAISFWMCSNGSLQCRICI

[2] = target: T1, 1918 HA displayed on 1918 virus-like …; experiment: cell-based or functional assay; remark: listed apart in the source
[3] = target: Recombinant A/South Carolina/1/1918 virus HA (influenza A/South Carolina/1/1918 …, UniProt Q9WFX3 18-520)
Recombinant A/South Carolina/1/1918 virus HA, sequence (Q9WFX3 18-520 limits assumed): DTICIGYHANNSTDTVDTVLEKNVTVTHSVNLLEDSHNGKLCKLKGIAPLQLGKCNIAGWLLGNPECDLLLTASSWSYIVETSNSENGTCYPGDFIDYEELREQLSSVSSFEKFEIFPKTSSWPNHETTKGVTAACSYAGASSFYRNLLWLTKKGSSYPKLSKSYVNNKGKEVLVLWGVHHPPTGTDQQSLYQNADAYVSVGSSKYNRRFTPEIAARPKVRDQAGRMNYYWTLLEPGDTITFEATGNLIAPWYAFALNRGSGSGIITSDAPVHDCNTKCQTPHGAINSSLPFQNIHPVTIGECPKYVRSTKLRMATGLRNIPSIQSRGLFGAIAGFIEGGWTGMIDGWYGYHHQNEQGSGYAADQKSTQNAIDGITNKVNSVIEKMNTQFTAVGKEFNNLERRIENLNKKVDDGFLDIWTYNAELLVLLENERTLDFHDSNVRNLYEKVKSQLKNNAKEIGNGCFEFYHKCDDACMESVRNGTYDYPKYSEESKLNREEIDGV

[4] = target: T1, 1918 HA displayed on 1918 virus-like …

| Binder | Specific HAI activity [1] [µg/mL] | HAI, specific activity of indicated mAb [2] [µg/mL] | Kd [3] [nM] | koff [3] [s⁻¹] | kon [3] [M⁻¹ s⁻¹] | EC50 (read off the curve) [4] [µg/mL] |
| --- | --- | --- | --- | --- | --- | --- |
| B1 | 0.04 | 0.04 | 0.14 | 1e-05 | 170000 | – |
| B2 | 0.31 | 0.32 | 6.2 | 0.00012 | 18000 | ~0.02 |
| B3 | 0.01 | 0.025 | 0.25 | 1e-05 | 39000 | – |
| B4 | 0.08 | 0.04 | 5.4 | 0.00017 | 31000 | – |
| B5 | 0.16 | 0.28 | 0.048 | 1.4e-05 | 290000 | – |
